# ± gives the standard error. This sample holds only a part of the variants without activity.
# B1: glmS ribozyme (parent)
# chain: AUAAAAGCGCCAGAACUACAGAAAUGUAGUUGACGAGGAGGAGGUUUAUCGAAUUUUCGGCGGAUGCCUCCAAA
# Assays:
# Conditions in all cases: with glucosamine-6-phosphate
# glucosamine-6-phosphate [1] = variants of: B1; experiment: self-cleavage kobs at 160 uM GlcN6P; higher = faster cleavage; RNA array
# Outline: (§1)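 Sequenced MiSeq chips were the platform: E. coli RNA polymerase transcribed barcoded ribozyme variants on them in situ, and a hybridised Cy3 probe tracked these at 37 °C. After glucosamine-6-phosphate (40 μM to 10 mM) in HEPES/KCl/Mg(OAc)2 buffer was flowed in, tiles were imaged over ~14 h. Signals normalised to baseline and to non-cleaving reference variants were reduced to per-tile medians and fit to one- or two-exponential decays to obtain kobs. kcat and KM were derived through weighted Michaelis–Menten fits across concentrations.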
# glucosamine-6-phosphate [2] = variants of: B1; experiment: self-cleavage kobs at 640 uM GlcN6P; higher = faster cleavage; RNA array
# Outline: as §1
# glucosamine-6-phosphate [3] = variants of: B1; experiment: self-cleavage kobs at 2500 uM GlcN6P; higher = faster cleavage; RNA array
# Outline: as §1
# glucosamine-6-phosphate [4] = variants of: B1; experiment: self-cleavage kobs at 10000 uM GlcN6P; higher = faster cleavage; RNA array
# Outline: as §1
variant,measurement,setting,value
AUAAAAGGGCCAGAACUACAGAAAUGUAGUUGACGAGGAGGAGGUUUAUCGGAUUUUCGGCGGAUGCCUCCAAA,self-cleavage kobs at 160 uM GlcN6P,glucosamine-6-phosphate [1],< 1e-05 s⁻¹
same,self-cleavage kobs at 640 uM GlcN6P,glucosamine-6-phosphate [2],< 1e-05 s⁻¹
same,self-cleavage kobs at 2500 uM GlcN6P,glucosamine-6-phosphate [3],< 1e-05 s⁻¹
same,self-cleavage kobs at 10000 uM GlcN6P,glucosamine-6-phosphate [4],< 1e-05 s⁻¹
AUAAAAGUGCCAGAACUACAGAAAUGUAGUUGACGAGGAGGAGGUUUAUCGAAUUUUCGGCGGAUUCCUCCAAA,self-cleavage kobs at 160 uM GlcN6P,glucosamine-6-phosphate [1],< 1e-05 s⁻¹
same,self-cleavage kobs at 640 uM GlcN6P,glucosamine-6-phosphate [2],< 1e-05 s⁻¹
same,self-cleavage kobs at 10000 uM GlcN6P,glucosamine-6-phosphate [4],< 1e-05 s⁻¹
AUAAAAGCGCCAGAGCUACAGAAAUGUAGUUGACGAGAAGGAGGUUUAUCGAAUUUUCGUCGGAUGCCUGCAAA,self-cleavage kobs at 160 uM GlcN6P,glucosamine-6-phosphate [1],< 1e-05 s⁻¹
same,self-cleavage kobs at 2500 uM GlcN6P,glucosamine-6-phosphate [3],< 1e-05 s⁻¹
AUAAAAGCGCCAGAACUACAGAAAUGUAGUUGACGAGGAGGAGGUUUAUCUAAUUUUCGCCGGAUGCCUUCAAA,self-cleavage kobs at 160 uM GlcN6P,glucosamine-6-phosphate [1],< 1e-05 s⁻¹
same,self-cleavage kobs at 640 uM GlcN6P,glucosamine-6-phosphate [2],< 1e-05 s⁻¹
AUAAAAGCGCCAGAACUACAGAAAUGUAGUUGACGAGGAGUAGCUUUAUCGAACUUUCGGCGGAUGCCUCCAAA,self-cleavage kobs at 160 uM GlcN6P,glucosamine-6-phosphate [1],< 1e-05 s⁻¹
same,self-cleavage kobs at 640 uM GlcN6P,glucosamine-6-phosphate [2],< 1e-05 s⁻¹
same,self-cleavage kobs at 2500 uM GlcN6P,glucosamine-6-phosphate [3],< 1e-05 s⁻¹
AUAAAAGCGCCAGAACUACAGAAAUGUAGUUGACUAGGAGGAGGUUUAUCGAAUUUUCGGCGGUUGCCUCCAAA,self-cleavage kobs at 160 uM GlcN6P,glucosamine-6-phosphate [1],< 1e-05 s⁻¹
same,self-cleavage kobs at 640 uM GlcN6P,glucosamine-6-phosphate [2],< 1e-05 s⁻¹
same,self-cleavage kobs at 2500 uM GlcN6P,glucosamine-6-phosphate [3],< 1e-05 s⁻¹
same,self-cleavage kobs at 10000 uM GlcN6P,glucosamine-6-phosphate [4],< 1e-05 s⁻¹
AUAAAAGCGCCAGAACUACAGAAAUGUAGUUGACGAGGAGGAGGAUUAUCGAGUUUUCGGCGGAUGCCUCUAAA,self-cleavage kobs at 160 uM GlcN6P,glucosamine-6-phosphate [1],0.00381 ± 0.0013 s⁻¹
same,self-cleavage kobs at 640 uM GlcN6P,glucosamine-6-phosphate [2],0.00623 ± 0.0015 s⁻¹
same,self-cleavage kobs at 2500 uM GlcN6P,glucosamine-6-phosphate [3],0.00735 ± 0.0025 s⁻¹
AUAAAAGCGCCAGAAUUACAGAAAUGUAGUUGACGAGGAAGAGGUCUAUCGAAUUUUCGGCGGAUGCCUCCAAA,self-cleavage kobs at 160 uM GlcN6P,glucosamine-6-phosphate [1],0.000137 ± 3.1e-05 s⁻¹
same,self-cleavage kobs at 2500 uM GlcN6P,glucosamine-6-phosphate [3],0.000815 ± 0.00018 s⁻¹
AUAAAAGCGCCAGAACUACAGAAAUGUAGUUGACGAGGAGUAGGUUUAUCGAAUUUUCGGCGGAUGCCGCCAAA,self-cleavage kobs at 160 uM GlcN6P,glucosamine-6-phosphate [1],< 1e-05 s⁻¹
same,self-cleavage kobs at 640 uM GlcN6P,glucosamine-6-phosphate [2],< 1e-05 s⁻¹
same,self-cleavage kobs at 2500 uM GlcN6P,glucosamine-6-phosphate [3],< 1e-05 s⁻¹
same,self-cleavage kobs at 10000 uM GlcN6P,glucosamine-6-phosphate [4],< 1e-05 s⁻¹
AUAAAAGCGCCAGAACUACAGAAAUGUAGUUGACCAGGUGGAGGUUUAGGGAAUUUUCGGCGGAUGCCUCCAAA,self-cleavage kobs at 160 uM GlcN6P,glucosamine-6-phosphate [1],< 1e-05 s⁻¹
same,self-cleavage kobs at 2500 uM GlcN6P,glucosamine-6-phosphate [3],< 1e-05 s⁻¹
AUAAAAGUGCCAGUACUACAGAAAUGUAGUUGACGAUGAGUAGGUUUAUCGAAUUUUCGGCGGAUGCCUCCAAA,self-cleavage kobs at 160 uM GlcN6P,glucosamine-6-phosphate [1],< 1e-05 s⁻¹
same,self-cleavage kobs at 640 uM GlcN6P,glucosamine-6-phosphate [2],< 1e-05 s⁻¹
same,self-cleavage kobs at 2500 uM GlcN6P,glucosamine-6-phosphate [3],< 1e-05 s⁻¹
AUAAAAACGCAAGAACUACAGAAAUGUAGUUGACGAGGAGGAGGUUUAUCGUAUUUUCGGCGGAUGCCUACAAA,self-cleavage kobs at 160 uM GlcN6P,glucosamine-6-phosphate [1],< 1e-05 s⁻¹
same,self-cleavage kobs at 640 uM GlcN6P,glucosamine-6-phosphate [2],< 1e-05 s⁻¹
same,self-cleavage kobs at 2500 uM GlcN6P,glucosamine-6-phosphate [3],< 1e-05 s⁻¹
AUAAAAGCGCGAAAACUACAGAAAUGUAGUUGACGAGGAGGAGUUUUAUCGAAUUUUCGGCGGAUGCCGCCAAA,self-cleavage kobs at 160 uM GlcN6P,glucosamine-6-phosphate [1],< 1e-05 s⁻¹
same,self-cleavage kobs at 2500 uM GlcN6P,glucosamine-6-phosphate [3],< 1e-05 s⁻¹
